According to patent US20050074821A1 (Amgen, published 2005):

Experiments:
[1] = biological target: T1, recombinant human NGF 1-120 (human, UniProt P01138 122-241); experiment: cell-based or functional assay
Target sequence in this assay (P01138 other isoform, or with tags, fused parts or gaps, form in doubt): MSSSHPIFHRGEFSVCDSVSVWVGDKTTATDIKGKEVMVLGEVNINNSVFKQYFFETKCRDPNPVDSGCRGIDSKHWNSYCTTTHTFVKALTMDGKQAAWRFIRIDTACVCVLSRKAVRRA

[2] = biological target: T2, NGF Lys-C peptide K1 (37.6) SSSHPIFHRGEFSVCDSVSVWVGDK (human, Cysteine residues were reduced and carboxymethylated); experiment: Lys-C digest of NGF incubated with antibody, Microcon 100 separation, reversed phase HPLC
T2 construct: Calculated mass 2821; observed mass 2828.2
T2 peptide: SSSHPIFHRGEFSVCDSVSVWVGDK

[3] = biological target: T3, NGF Lys-C peptide K2 (39.5) QAAWRFIRIDTACVCVLSRK (human, Cysteine residues were reduced and carboxymethylated); experiment: as above
T3 construct: Calculated mass 2452; observed mass 2459.5
T3 peptide: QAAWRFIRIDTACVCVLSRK

[4] = biological target: T4, NGF subtilisin peptide S1 (4.4) SRKAVRR (113-119) (human); experiment: subtilisin-digested NGF incubated with antibody, Microcon 10 separation, HPLC of bound and unbound fractions
T4 peptide: SRKAVRR

[5] = biological target: T5, NGF subtilisin peptide S2 (28.3) EVMVL (35-39) (human); experiment: as above
T5 peptide: EVMVL

[6] = biological target: T1, recombinant human NGF 1-120; experiment: KinExA; 10 pM and 30 pM Ab 4D4 equilibrated with huNGF in solution for 8 h, free antibody captured on huNGF-coated beads, dual-curve one-site fit
Target sequence in this assay (P01138 other isoform, or with tags, fused parts or gaps, form in doubt): as the sequence (P01138 other isoform, or with tags, fused parts or gaps, form in doubt) above

[7] = biological target: T1, recombinant human NGF 1-120; experiment: cell-based or functional assay; remark: listed apart in the source
Target sequence in this assay (P01138 other isoform, or with tags, fused parts or gaps, form in doubt): as the sequence (P01138 other isoform, or with tags, fused parts or gaps, form in doubt) above

[8] = biological target: recombinant rat beta-NGF (R&D Systems) (rat, UniProt P25427 122-241); experiment: cell-based or functional assay
[9] = biological target: T6, synthetic hNGF peptide 33582-27-10 NSVFKQYFFETKARDC (46-60) (human, C-terminal cysteine tail, conjugated to a maleimide activated plate); experiment: peptide ELISA, Ab binding signal; peptide #10, L2, 46-60
T6 construct: also called Peptide # 10; peptide #10
T6 peptide: NSVFKQYFFETKARDC

[10] = biological target: T7, synthetic hNGF peptide 33582-27-17 TTTHTFVKALTMDGKC (81-95) (human, C-terminal cysteine tail, conjugated to a maleimide activated plate); experiment: peptide ELISA, Ab binding signal; peptide #17, L4, 81-95
T7 construct: also called Peptide # 17; peptide #17
T7 peptide: TTTHTFVKALTMDGKC

[11] = biological target: T8, synthetic hNGF peptide 33582-27-01 SSSHPIFHRGEFSVC (1-15) (human, conjugated through cysteine to a maleimide activated plate); experiment: peptide ELISA, Ab binding signal; peptide #1, N-terminus, 1-15
T8 construct: also called Peptide # 1; peptide #1
T8 peptide: SSSHPIFHRGEFSVC

[12] = biological target: T9, synthetic hNGF peptide 33582-27-16 WNSYATTTHTFVKALC (76-90) (human, C-terminal cysteine tail, conjugated to a maleimide activated plate); experiment: peptide ELISA, Ab binding signal; peptide #16, internal, 76-90
T9 construct: also called Peptide # 16; peptide #16
T9 peptide: WNSYATTTHTFVKALC

[13] = biological target: T10, synthetic hNGF peptide 33582-27-19 TMDGKQAAWRFIRIDC (91-105) (human, C-terminal cysteine tail, conjugated to a maleimide activated plate); experiment: peptide ELISA, Ab binding signal; peptide #19, internal, 91-105
T10 construct: also called Peptide # 19; peptide #19
T10 peptide: TMDGKQAAWRFIRIDC

[14] = biological target: T11, synthetic hNGF peptide 33582-27-20 QAAWRFIRIDTAAVC (96-110) (human, conjugated through cysteine to a maleimide activated plate); experiment: peptide ELISA, Ab binding signal; peptides # 20-21, C-terminus, 96-115
T11 construct: also called Peptide # 20
T11 peptide: QAAWRFIRIDTAAVC

[15] = biological target: T12, synthetic hNGF peptide 33582-27-21 FIRIDTAAVAVLSRKC (101-115) (human, C-terminal cysteine tail, conjugated to a maleimide activated plate); experiment: as above
T12 construct: also called Peptide # 21
T12 peptide: FIRIDTAAVAVLSRKC

[16] = biological target: T13, synthetic hNGF peptide 33582-27-18 FVKALTMDGKQAAWRC (86-100) (human, C-terminal cysteine tail, conjugated to a maleimide activated plate); experiment: ELISA, peptide conjugated to maleimide plate, 4D4.IgG1 at 0, 3, 10, 30 ug/ml, anti-hFc-HRP
T13 construct: also called Peptide # 18
T13 peptide: FVKALTMDGKQAAWRC

[17] = biological target: T1, recombinant human NGF 1-120; experiment: cell-based or functional assay; remark: listed apart in the source
Target sequence in this assay (P01138 other isoform, or with tags, fused parts or gaps): as the sequence (P01138 other isoform, or with tags, fused parts or gaps, form in doubt) above

Sequence of recombinant rat beta-NGF (R&D Systems) (P25427 122-241 limits assumed): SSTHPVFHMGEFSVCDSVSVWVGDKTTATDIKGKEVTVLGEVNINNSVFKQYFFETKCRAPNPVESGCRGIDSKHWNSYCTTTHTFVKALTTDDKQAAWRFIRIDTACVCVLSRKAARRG

B1: anti-NGF monoclonal antibody 4D4 (antibody, V domains shown)
VH: EVQLVESGGGLVQPGGSLRLSCAASGFTLRSYSMNWVRQAPGKGLEWVSYISRSSHTIFYADSVKGRFTISRDNAKNSLYLQMDSLRDEDTAMYYCARVYSSGWHVSDYFDYWGQGILVTVSS
VL: AIQLTQSPSSLSASVGDRVTITCRASQGISSALAWYQQKPGKAPKLLIYDASSLESGVPSRFSGSGSGTDFTLTISSLQPEDFATYYCQQFNSYPLTFGGGTKVEIK
notes: also called 4D4.D7; #124 (parent)
- IC50, inhibition of NGF-induced VR1 expression in rat DRG neurons; sample 119 (from 124) [1]: < 1.2 nM
- IC50, inhibition of NGF-induced VR1 expression in rat DRG neurons; sample 124 (parent) [1]: < 0.57 nM
- IC50, inhibition of NGF-induced VR1 expression in rat DRG neurons; sample 125 (from 124) [1]: < 0.3 nM
- IC50, inhibition of NGF-induced VR1 expression in rat DRG neurons; sample 167 (from same sample as 124) [1]: 0.5 nM
- binding result [2]: binds
- binding result [3]: binds
- binding result [4]: binds
- binding result [5]: binds
- Kd [6]: ~0.004 nM

B2: 4D4.IgG1 (recombinant anti-NGF 4D4 antibody with IgG1 heavy chain constant region) (antibody, V domains shown)
VH: B1 VH
VL: AIQLTQSPSSLSASVGDRVTITCRASQGISSALAWYQQKPGKAPKLLIYDASSLESGVPSRFSGSGSGTDFTLTISSLQPEDFATYYCQQFNSYPLTFGGGTKVEIKR
notes: also called 4D4.IgG1.S; human anti-hNGF Ab 4D4.IgG1
- IC50 @ hNGF (nM), DRG neuron based NGF neutralization bioassay; 4D4.IgG1.R [7]: 0.149 nM
- IC50 @ hNGF (nM), DRG neuron based NGF neutralization bioassay; 4D4.IgG1.S [7]: 0.159 nM
- IC50 @ rNGF (nM), DRG neuron based NGF neutralization bioassay; 4D4.IgG1.R [8]: > 34 nM
- IC50 @ rNGF (nM), DRG neuron based NGF neutralization bioassay; 4D4.IgG1.S [8]: > 45 nM
- binding result [9]: binds
- binding result [10]: binds
- binding result [11]: binds
- binding result [12]: binds
- binding result [13]: binds
- binding result [14]: binds
- binding result [15]: binds
- binding result [16]: binds

B3: anti-NGF antibody 14D10 (antibody, V domains shown)
VH: EVQLVESGGGLVQPGRSLRLSCTASGFTFEDYAMHWVRQAPGKGLEWVSGISWNRGIIGYADSVKGRFTVSRDNAKNSLYLQMNSLRAEDTALYYCAKEGYYGSGRPGYFYYVMDVWGQGTTVTVSS
VL: EIVLTQSPGTLSLSPGERATLSCRASQSVSSGFLAWFQQKPGQAPRLLIYGASSRATAIPDRFSGSGSGTDFTLTISRLEPEDFAVYYCQQYGSSPYTFGQGTKLEIK
- IC50 @ hNGF (nM), DRG neuron NGF neutralization assay; clone 14D10 [17]: 0.392 nM
- IC50 @ rNGF (nM), DRG neuron NGF neutralization assay; clone 14D10 [8]: > 13 nM

B4: anti-NGF antibody 14D11 (antibody, V domains shown)
VH: EVQLVQSGAEVKKPGESLKISCKGSGYNFTTYWIGWVRQMPGKGLEWMGIIYPGDSDTKYSPSFQGQVTISADKSISTAYLQWSSLKASDTAMYYCARNYYGSGTYYYYYGMNVWGQGTTVTVSS
VL: DIQMTQSPSSVSASVGDRVTITCRASQGISIWLAWYQHKPGKAPKLLIYAASSLQSGVPSRFSGSGSGTDFTLTISSLQPEDFATYYCQQANSFPWTFGQGTKVEIK
- IC50 @ hNGF (nM), DRG neuron NGF neutralization assay; clone 14D11 [17]: 0.28 nM
- IC50 @ rNGF (nM), DRG neuron NGF neutralization assay; clone 14D11 [8]: > 20 nM
